Laboratory results from the RNAGym collection of RNA variant scans (doi:10.1073/pnas.2313332121).

B1: TPR t1 (parent)
chain: GACCAAUCUGCCCUCAGAGCUCGAGAACAUCUUCGGAUGCAGAGGAGGCAGGCUUCGGUGGCGCGAUAGCGCCAACGUCCUCAACCUCCAAUGCAUCCCACCACAUGAUGAUGCCUGAAGAGCCUUGGUUUUUUG

Variants of: B1
Experiment: polymerase ribozyme fitness, log enrichment relative to wild type (log ratio); higher = more active; in vitro selection for triplet polymerase activity
Procedure, shortened: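 Mutant libraries for each subunit of a heterodimeric triplet polymerase ribozyme were made by PCR and then transcribed. Each library underwent one round of in vitro selection in triplicate: annealing with a biotinylated primer, the partner subunit and triplets, frozen incubation at −7 °C, gel excision of extended constructs, streptavidin-bead capture and RT-PCR. Input and output libraries were Illumina-sequenced, and only genotypes with ≥10 input reads and ≥1 read per output were kept. Fitness is the logarithm, base 2, of genotype enrichment over wild-type enrichment, computed from inverse-variance-weighted replicate averages.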

Variant | polymerase ribozyme fitness (log ratio)
U14A C31U U87C U112G | -6.24
U14A C49U G52U A121U U125A | -1.22
U14A C49U G52U C76A | -4.51
U14A C53G C70U C72G | -4.88
U14A C56A C62U | -2.93
U14A C56G | -3.51
U14A C70A | -4.09
U14A C70G G77C U112C A119G U131G | -3.76
U14A C70G U125A | -4.4
U14A C70U C104U | -2.52
U14A C72U G93U U133A G135U | -4.17
U14A C79U G117U | -5.29
U14A C85A C89G C123U | -3.2
U14A C115U | -3.52
U14A G36A C56U | -3.35
U14A G36U C40G C56A A84G C97A | -7.86
U14A G45A G110U U112C | -4.2
U14A G48A C56U G117U | -5.41
U14A G52A | -3.3
U14A G52C C102U U106C C124G | -1.75
U14A G57A G61A A90G C124A | 1.08

Variant | polymerase ribozyme fitness (log ratio)
U14A G60U U78C | -3.65
U14A G61U U81A C97U | -3.36
U14A G63A U125A | -2.94
U14A G63C | -2.57
U14A G63C C82U U132A | -3.33
U14A G120A | -0.235
U14A U21G G120U C124U | -0.621
U14A U32C U87A C101A | -3.54
U14A U54A C56U U130G | -3.42
U14A U116A A121G | 0.0546
U14A U125A | -2.3
U14A U125G | -3.25
U14C A18G G63A U78C G117U | -5.13
U14C A18U G48U G71A | -6.1
U14C A26C C70U U78A A83U U109G U112A | -6.59
U14C A37C | -2.09
U14C A43G | -3.2
U14C A46U C62U U125A | -3.37
U14C A75G | -1.81
U14C C20A C114U G128U | -5.92
U14C C31G U33G G65U A95U G117U | -7.34

Variant | polymerase ribozyme fitness (log ratio)
U14C C40G C49G | -3.41
U14C C72A | -0.983
U14C C80U | -2.7
U14C G42U G44A G61U | -2.82
U14C G45A G122A | -3.73
U14C G47C | -2.99
U14C G57A C97U | -3.84
U14C G60C C64A U109G | -6.09
U14C U33C | -5.43
U14C U55C G117U U133G | -5.59
U14C U78A C80A | -4.98
U14G A37G G42A G77A | -4.88
U14G A41C A74U A84C | -3.77
U14G A46G G71C G120A | -0.69
U14G A50U C56U G93U U112A | -3.22
U14G C15A | -3.45
U14G C20G G44U G117C | -6.5
U14G C20U C22G G23C U33C U38G C62U U112C A118G G127A | -6.3
U14G C22U A29G G61A C124G U129C | -4.06
U14G C34A G117A | -4.56
U14G C40G C86U A90G U106A | -3.96

Variant | polymerase ribozyme fitness (log ratio)
U14G C56U C70A | -5.19
U14G C70G U116G U125A | -5.32
U14G C73U | -1.04
U14G C73U A90G | 1.59
U14G C79G | -3.52
U14G C80U C102U C123G | -1.69
U14G G36C | -3.92
U14G G39A C85U G117A | -3.84
U14G G42U G45C C64U C101U C123A G135U | -4.44
U14G G47U C101G G120U | -4.67
U14G G48A C64U U116A C123G U131C | -1.29
U14G G48U G60U | -2.56
U14G G51A G113A G120A A121G | -2.87
U14G G60A G117U | -5.67
U14G G69A A90C U112A G128A | -6.5
U14G G69C | -3.2
U14G G71A G120C | -0.108
U14G G110A U130A | -3.04
U14G G120U | -1.14
U14G U54A G61C | -2.7
U14G U129G | -3.21
